B1: FST(284)-IgG2 (Fc fusion)
chain: GNCWLRQAKNGRCQVLYKTELSKEECCSTGRLSTSWTEEDVNDNTLFKWMIFNGGAPNCIPCKETCENVDCGPGKKCRMNKKNKPRCVCAPDCSNITWKGPVCGLDGKTYRNECALLKARCKEQPELEVQYQGRCKKTCRDVFCPGSSTCVVDQTNNAYCVTCNRICPEPASSEQYLCGNDGVTYSSACHLRKATCLLGRSIGLAYEGKCIKAKSCEDIQCTGGKKCLWDFKVGRGRCSLCDELCPDSKSDEPVCASDNATYASECAMKEAACSSGVLLEVKHSTGGGVECPPCPAPPVAGPSVFLFPPKPKDTLMISRTPEVTCVVVDVSHEDPEVQFNWYVDGVEVHNAKTKPREEQFNSTFRVVSVLTVVHQDWLNGKEYKCKVSNKGLPAPIEKTISKTKGQPREPQVYTLPPSREEMTKNQVSLTCLVKGFYPSDIAVEWESNGQPENNYKTTPPMLDSDGSFFLYSKLTVDKSRWQQGNVFSCSVMHEALHNHYTQKSLSLSPGK
B2: FST(303)-IgG2 (Fc fusion)
chain: GNCWLRQAKNGRCQVLYKTELSKEECCSTGRLSTSWTEEDVNDNTLFKWMIFNGGAPNCIPCKETCENVDCGPGKKCRMNKKNKPRCVCAPDCSNITWKGPVCGLDGKTYRNECALLKARCKEQPELEVQYQGRCKKTCRDVFCPGSSTCVVDQTNNAYCVTCNRICPEPASSEQYLCGNDGVTYSSACHLRKATCLLGRSIGLAYEGKCIKAKSCEDIQCTGGKKCLWDFKVGRGRCSLCDELCPDSKSDEPVCASDNATYASECAMKEAACSSGVLLEVKHSGSCNSISEDTEEEEEDEDQTGGGVECPPCPAPPVAGPSVFLFPPKPKDTLMISRTPEVTCVVVDVSHEDPEVQFNWYVDGVEVHNAKTKPREEQFNSTFRVVSVLTVVHQDWLNGKEYKCKVSNKGLPAPIEKTISKTKGQPREPQVYTLPPSREEMTKNQVSLTCLVKGFYPSDIAVEWESNGQPENNYKTTPPMLDSDGSFFLYSKLTVDKSRWQQGNVFSCSVMHEALHNHYTQKSLSLSPGK
B3: FST(288)-IgG2 (Fc fusion)
chain: GNCWLRQAKNGRCQVLYKTELSKEECCSTGRLSTSWTEEDVNDNTLFKWMIFNGGAPNCIPCKETCENVDCGPGKKCRMNKKNKPRCVCAPDCSNITWKGPVCGLDGKTYRNECALLKARCKEQPELEVQYQGRCKKTCRDVFCPGSSTCVVDQTNNAYCVTCNRICPEPASSEQYLCGNDGVTYSSACHLRKATCLLGRSIGLAYEGKCIKAKSCEDIQCTGGKKCLWDFKVGRGRCSLCDELCPDSKSDEPVCASDNATYASECAMKEAACSSGVLLEVKHSGSCNTGGGVECPPCPAPPVAGPSVFLFPPKPKDTLMISRTPEVTCVVVDVSHEDPEVQFNWYVDGVEVHNAKTKPREEQFNSTFRVVSVLTVVHQDWLNGKEYKCKVSNKGLPAPIEKTISKTKGQPREPQVYTLPPSREEMTKNQVSLTCLVKGFYPSDIAVEWESNGQPENNYKTTPPMLDSDGSFFLYSKLTVDKSRWQQGNVFSCSVMHEALHNHYTQKSLSLSPGK
notes: Expressed with the follistatin leader in HEK-293 or CHO cells; also called mature FST(288)-IgG2
B4: FST(315)-IgG2 (Fc fusion)
chain: GNCWLRQAKNGRCQVLYKTELSKEECCSTGRLSTSWTEEDVNDNTLFKWMIFNGGAPNCIPCKETCENVDCGPGKKCRMNKKNKPRCVCAPDCSNITWKGPVCGLDGKTYRNECALLKARCKEQPELEVQYQGRCKKTCRDVFCPGSSTCVVDQTNNAYCVTCNRICPEPASSEQYLCGNDGVTYSSACHLRKATCLLGRSIGLAYEGKCIKAKSCEDIQCTGGKKCLWDFKVGRGRCSLCDELCPDSKSDEPVCASDNATYASECAMKEAACSSGVLLEVKHSGSCNSISEDTEEEEEDEDQDYSFPISSILEWTGGGVECPPCPAPPVAGPSVFLFPPKPKDTLMISRTPEVTCVVVDVSHEDPEVQFNWYVDGVEVHNAKTKPREEQFNSTFRVVSVLTVVHQDWLNGKEYKCKVSNKGLPAPIEKTISKTKGQPREPQVYTLPPSREEMTKNQVSLTCLVKGFYPSDIAVEWESNGQPENNYKTTPPMLDSDGSFFLYSKLTVDKSRWQQGNVFSCSVMHEALHNHYTQKSLSLSPGK
notes: Expressed with the follistatin leader in HEK-293 or CHO cells; also called mature FST(315)-IgG2
B5: FST(278)-IgG2 (Fc fusion)
chain: GNCWLRQAKNGRCQVLYKTELSKEECCSTGRLSTSWTEEDVNDNTLFKWMIFNGGAPNCIPCKETCENVDCGPGKKCRMNKKNKPRCVCAPDCSNITWKGPVCGLDGKTYRNECALLKARCKEQPELEVQYQGRCKKTCRDVFCPGSSTCVVDQTNNAYCVTCNRICPEPASSEQYLCGNDGVTYSSACHLRKATCLLGRSIGLAYEGKCIKAKSCEDIQCTGGKKCLWDFKVGRGRCSLCDELCPDSKSDEPVCASDNATYASECAMKEAACSSGVLTGGGVECPPCPAPPVAGPSVFLFPPKPKDTLMISRTPEVTCVVVDVSHEDPEVQFNWYVDGVEVHNAKTKPREEQFNSTFRVVSVLTVVHQDWLNGKEYKCKVSNKGLPAPIEKTISKTKGQPREPQVYTLPPSREEMTKNQVSLTCLVKGFYPSDIAVEWESNGQPENNYKTTPPMLDSDGSFFLYSKLTVDKSRWQQGNVFSCSVMHEALHNHYTQKSLSLSPGK
B6: FST(291)-IgG2 (Fc fusion)
chain: GNCWLRQAKNGRCQVLYKTELSKEECCSTGRLSTSWTEEDVNDNTLFKWMIFNGGAPNCIPCKETCENVDCGPGKKCRMNKKNKPRCVCAPDCSNITWKGPVCGLDGKTYRNECALLKARCKEQPELEVQYQGRCKKTCRDVFCPGSSTCVVDQTNNAYCVTCNRICPEPASSEQYLCGNDGVTYSSACHLRKATCLLGRSIGLAYEGKCIKAKSCEDIQCTGGKKCLWDFKVGRGRCSLCDELCPDSKSDEPVCASDNATYASECAMKEAACSSGVLLEVKHSGSCNSISTGGGVECPPCPAPPVAGPSVFLFPPKPKDTLMISRTPEVTCVVVDVSHEDPEVQFNWYVDGVEVHNAKTKPREEQFNSTFRVVSVLTVVHQDWLNGKEYKCKVSNKGLPAPIEKTISKTKGQPREPQVYTLPPSREEMTKNQVSLTCLVKGFYPSDIAVEWESNGQPENNYKTTPPMLDSDGSFFLYSKLTVDKSRWQQGNVFSCSVMHEALHNHYTQKSLSLSPGK
notes: Expressed with the follistatin leader in HEK-293 or CHO cells; also called mature FST(291)-IgG2

Columns and labels:
activin A [1] = target: T1, activin A (UniProt P08476 311-426); experiment: cell-based or functional assay
T1 sequence (looked up): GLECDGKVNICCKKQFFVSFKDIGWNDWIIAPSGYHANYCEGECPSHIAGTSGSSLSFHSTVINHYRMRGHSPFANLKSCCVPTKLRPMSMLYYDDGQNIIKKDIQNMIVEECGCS

GDF11 [2] = target: T2, GDF11 (UniProt O95390 299-407); experiment: cell-based or functional assay
T2 sequence (looked up): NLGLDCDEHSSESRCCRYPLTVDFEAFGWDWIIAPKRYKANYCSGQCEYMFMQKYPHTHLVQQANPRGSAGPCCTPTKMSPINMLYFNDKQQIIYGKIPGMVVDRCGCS

activin A [3] = target: T1, activin A; experiment: binding assay, method not stated
GDF11 [4] = target: T2, GDF11; experiment: binding assay, method not stated

Binder	IC50 (ng/ml), A-204 Reporter Gene Assay (activin A [1])	IC50 (ng/ml), A-204 Reporter Gene Assay (GDF11 [2])	Kd (activin A [3])	Kd (GDF11 [4])
B1	369 ng/mL	123 ng/mL	–	–
B2	2 ng/mL	18 ng/mL	–	–
B3	30 ng/mL	41 ng/mL	< 0.01 nM	< 0.01 nM
B4	10 ng/mL	15 ng/mL	< 0.01 nM	< 0.01 nM
B5	521 ng/mL	91 ng/mL	–	–
B6	20 ng/mL	26 ng/mL	< 0.01 nM	< 0.01 nM

Reference: patent US20160185836A1 (published 2016)
